Measured values taken from the supplement of paper PMC10567573.
± gives the standard deviation.

Experiment: protein stability index of a GFP-peptide fusion (GPS, HEK-293T) (PSI 1-6); higher = more stable
Conditions: c terminus: a fixed tail appended
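Note: 24-mer peptide tiles fused after GFP, lentivirally expressed, FACS-sorted into six equal bins by GFP/DsRed ratio, decoded by Illumina sequencing, PSI is the read-weighted mean bin number.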

GRSWPSAPDDSKAQAHRIHIDPEI [PDLIM4]
protein stability index (treatment: DMSO): 4.22 ± 0.33
protein stability index (treatment: MLN4924 1 uM, 8 h): 4.31 ± 0.07

DIWSTACMAFELATGDYLFEPHSG [SRPK2]
protein stability index (treatment: DMSO): 3.2 ± 0.24
protein stability index (treatment: MLN4924 1 uM, 8 h): 3.39 ± 0.47

ISCVICNDIMAYMFGFFFGRTPLI [CDS2]
protein stability index (treatment: DMSO): 3.31 ± 0.35
protein stability index (treatment: MLN4924 1 uM, 8 h): 2.92 ± 0.48

VNAKDNMWLTPLHRAVASRSEEAV [ANKRD44]
protein stability index (treatment: DMSO): 4.07 ± 0.29
protein stability index (treatment: MLN4924 1 uM, 8 h): 4.02 ± 0.44

ASIHWDWKIALLFVAFALCMFCLY [SLC35F2]
protein stability index (treatment: DMSO): 2.17 ± 0.36
protein stability index (treatment: MLN4924 1 uM, 8 h): 2.26 ± 0.24

LAEIRSDLERQNQEYQVLLDVRAR [KRT33B]
protein stability index (treatment: DMSO): 3.84 ± 0.25
protein stability index (treatment: MLN4924 1 uM, 8 h): 4.02 ± 0.32

LWILHLLLECYIQYHHSKIRNRGY [TMEM192]
protein stability index (treatment: DMSO): 2.61 ± 0.51
protein stability index (treatment: MLN4924 1 uM, 8 h): 2.49 ± 0.32

AISSPTVSRLTDTTKFTGSHKERF [TPPP]
protein stability index (treatment: DMSO): 4.17 ± 0.26
protein stability index (treatment: MLN4924 1 uM, 8 h): 4.29 ± 0.12

APVAEAWIPQAGPPELNYGATGEC [ZNF449]
protein stability index (treatment: DMSO): 4.78 ± 0.12
protein stability index (treatment: MLN4924 1 uM, 8 h): 4.88 ± 0.33

HLPWQYHAGQGGLFYSAEVEMLCD [CCDC3]
protein stability index (treatment: DMSO): 2.94 ± 0.44
protein stability index (treatment: MLN4924 1 uM, 8 h): 2.52 ± 0.2

LHNLLLHQEGAKMAVRLAGGLQKM [CTNNB1]
protein stability index (treatment: DMSO): 2.02 ± 0.22
protein stability index (treatment: MLN4924 1 uM, 8 h): 2.36 ± 0.26

AKSVLKERGLKKIRLGIEGYPTYK [BTBD10]
protein stability index (treatment: DMSO): 2.79 ± 0.23
protein stability index (treatment: MLN4924 1 uM, 8 h): 2.8 ± 0.44

TIGASFMTKTVQYQNELHKFLIWD [RAB22A]
protein stability index (treatment: DMSO): 2.5 ± 0.45
protein stability index (treatment: MLN4924 1 uM, 8 h): 2.01 ± 0.16

LPPSPRFLVMKGQEGAASKVLGRL [SLC2A12]
protein stability index (treatment: DMSO): 3.34 ± 0.28
protein stability index (treatment: MLN4924 1 uM, 8 h): 3.48 ± 0.83

YEFHLEFLDLVKPEPVYKLTQRQV [HACD3]
protein stability index (treatment: DMSO): 2.54 ± 0.63
protein stability index (treatment: MLN4924 1 uM, 8 h): 2.12 ± 0.076

IAVLPRYVEIRTFEPRLLVQSIEL [VPS39]
protein stability index (treatment: DMSO): 2.97 ± 0.57
protein stability index (treatment: MLN4924 1 uM, 8 h): 2.88 ± 0.38

PHKTFRKLRLFDTPHTPKSLLSKA [WEE1]
protein stability index (treatment: DMSO): 2.82 ± 0.35
protein stability index (treatment: MLN4924 1 uM, 8 h): 2.98 ± 0.41

PVQASQLEEEFDSDSGLSLDSSHS [NFE2L1]
protein stability index (treatment: DMSO): 5.51 ± 0.11
protein stability index (treatment: MLN4924 1 uM, 8 h): 5.46 ± 0.22

REQLQAEASERFAAGYIQCMHEVH [HES6]
protein stability index (treatment: DMSO): 3.62 ± 0.37
protein stability index (treatment: MLN4924 1 uM, 8 h): 3.77 ± 0.22

DQSKLAGLLDLNNAILQLVKKYKS [ESRRG]
protein stability index (treatment: DMSO): 2.4 ± 0.26
protein stability index (treatment: MLN4924 1 uM, 8 h): 2.31 ± 0.5

VWYYCTLTIRESILINNGSRIKGW [TMEM120A]
protein stability index (treatment: DMSO): 3.08 ± 0.61
protein stability index (treatment: MLN4924 1 uM, 8 h): 2.96 ± 0.36

EEAVPEEEGPTVVLNPHPSLGYKE [CHGA]
protein stability index (treatment: DMSO): 5.33 ± 0.28
protein stability index (treatment: MLN4924 1 uM, 8 h): 5.32 ± 0.38

EALVNRLWKRMDKLEAEKRILQEK [CCDC6]
protein stability index (treatment: DMSO): 2.93 ± 0.08
protein stability index (treatment: MLN4924 1 uM, 8 h): 3.6 ± 0.24

TDAHVWNKSVTLYTVKDKATGEVL [NLN]
protein stability index (treatment: DMSO): 3.46 ± 0.6
protein stability index (treatment: MLN4924 1 uM, 8 h): 3.36 ± 0.55

VQVENPERFSSAPCLLGSRVFSQG [TRIM35]
protein stability index (treatment: DMSO): 3.09 ± 0.24
protein stability index (treatment: MLN4924 1 uM, 8 h): 3.2 ± 0.22

SDPEISDVDEDEPGGLVGSADVVS [PPFIA4]
protein stability index (treatment: DMSO): 5.54 ± 0.34
protein stability index (treatment: MLN4924 1 uM, 8 h): 5.35 ± 0.45

CPQCGKCFARKSQLTGHQRIHSGE [ZNF449]
protein stability index (treatment: DMSO): 5.1 ± 0.3
protein stability index (treatment: MLN4924 1 uM, 8 h): 5.16 ± 0.087

GSYNGQIGWFPSNYVLEEVDEAAA [NCK2]
protein stability index (treatment: DMSO): 4.65 ± 0.29
protein stability index (treatment: MLN4924 1 uM, 8 h): 4.66 ± 0.36

FQARLSGNNLHNASIPEHLAYGSV [POMT2]
protein stability index (treatment: DMSO): 2.63 ± 0.21
protein stability index (treatment: MLN4924 1 uM, 8 h): 2.95 ± 0.29

NTGYRLQNNENNISCVERGWSTPP [CFHR2]
protein stability index (treatment: DMSO): 3.67 ± 0.19
protein stability index (treatment: MLN4924 1 uM, 8 h): 3.66 ± 0.22

GSNRSGSDRRKEKDPKAGDSKSGG [DVL3]
protein stability index (treatment: DMSO): 5.63 ± 0.21
protein stability index (treatment: MLN4924 1 uM, 8 h): 5.47 ± 0.23

EEVPEGMEEAAVASVVLPARELQE [BCL2L13]
protein stability index (treatment: DMSO): 5.59 ± 0.2
protein stability index (treatment: MLN4924 1 uM, 8 h): 5.41 ± 0.26

NVKTLKDGKPFPELVLEQQLDREA [PCDHGC5]
protein stability index (treatment: DMSO): 5.07 ± 0.33
protein stability index (treatment: MLN4924 1 uM, 8 h): 5.02 ± 0.13

NCEQLCVNVPGSFVCQCYSGYALA [MATN2]
protein stability index (treatment: DMSO): 2.16 ± 0.55
protein stability index (treatment: MLN4924 1 uM, 8 h): 2.34 ± 0.53

SLNGVYPRMNEVYTRLGEMNNAVR [CEP70]
protein stability index (treatment: DMSO): 2.55 ± 0.21
protein stability index (treatment: MLN4924 1 uM, 8 h): 3.08 ± 0.31

SSCVKILLDHNANIDIQNGFLLRY [ASB7]
protein stability index (treatment: DMSO): 2.47 ± 0.43
protein stability index (treatment: MLN4924 1 uM, 8 h): 2.5 ± 0.24

PTVKDLIGGFTALHYAAMHGRARI [ASB7]
protein stability index (treatment: DMSO): 2.56 ± 0.47
protein stability index (treatment: MLN4924 1 uM, 8 h): 2.4 ± 0.43

TPAITVSNSCPAELPNIKREISET [TFE3]
protein stability index (treatment: DMSO): 5.16 ± 0.35
protein stability index (treatment: MLN4924 1 uM, 8 h): 4.86 ± 0.22

KTTGLEEAAEAETAKDNGEAEDQE [SRPK2]
protein stability index (treatment: DMSO): 5.69 ± 0.14
protein stability index (treatment: MLN4924 1 uM, 8 h): 5.73 ± 0.24

LSRKVAELVHFLLLKYRAREPVTK [MAGEA3]
protein stability index (treatment: DMSO): 2.97 ± 0.42
protein stability index (treatment: MLN4924 1 uM, 8 h): 2.44 ± 0.43

MMELGSRSRGASQKKQKLEQKAAG [FATE1]
protein stability index (treatment: DMSO): 4.76 ± 0.19
protein stability index (treatment: MLN4924 1 uM, 8 h): 4.87 ± 0.49

LEGVIDRYQQSKAAALKCQLCEKA [TRIM9]
protein stability index (treatment: DMSO): 3.45 ± 0.32
protein stability index (treatment: MLN4924 1 uM, 8 h): 3.78 ± 0.34

RELNDRLAVYIDKVRSLETENSAL [LMNB1]
protein stability index (treatment: DMSO): 3.33 ± 0.24
protein stability index (treatment: MLN4924 1 uM, 8 h): 3.04 ± 0.34

LIFSVQPKSLVRLSLEAVICFKEM [KLHDC2]
protein stability index (treatment: DMSO): 1.88 ± 0.17
protein stability index (treatment: MLN4924 1 uM, 8 h): 2.04 ± 0.31
